Experimental data: FireProtDB (doi:10.1002/pro.5560050915)

B1: Adrenodoxin, mitochondrial, P00257 (parent)
chain: MAARLLRVASAALGDTAGRWRLLARPRAGAGGLRGSRGPGLGGGAVATRTLSVSGRAQSSSEDKITVHFINRDGETLTTKGKIGDSLLDVVVQNNLDIDGFGACEGTLACSTCHLIFEQHIFEKLEAITDEENDMLDLAYGLTDRSRLGCQICLTKAMDNMTVRVPDAVSDARESIDMGMNSSKIE

Variants of: B1
Conditions: Bos taurus, pH 8.5, Thermal, DSC, ascorbate 1 mM, structure 1AYF, whole UniProt chain shown; for ddG of mutation (higher = less stable) / unfolding free energy: 37 °C

| Variant | ddG of mutation (higher = less stable) | unfolding free energy | Tm | change of melting temperature, mutant - wild type (higher = more stable) | heat capacity change of unfolding | unfolding enthalpy (calorimetric) |
| --- | --- | --- | --- | --- | --- | --- |
| MAARLLRVASAALGDTAGRWRLLARPRAGAGGLRGSRGPGLGGGAVATRTLSVSGRAQSSSEDKITVHFINRDGETLTTKGKIGDSLLDVVVQNNLDIDGFGACEGTLACSTCHLIFEQHIFEKLEAITDEENDMLDLAWGLTDRSRLGCQICLTKAMDNMTVRVPDAVSDARESIDMGMNSSKIE [Y140W] | 0.21 kcal/mol | 2.97 kcal/mol | 51.7 °C | 0.31 °C | 1.87 kcal/mol/K | 78.6 kcal/mol |
| MAARLLRVASAALGDTAGRWRLLARPRAGAGGLRGSRGPGLGGGAVATRTLSVSGRAQSSSEDKITVHFINRDGETLTTKGKIGDSLLDVVVQNNLDIDGFGACEGTLACSTCHLIFEQHIFEKLEAITDEENDMLDLAFGLTDRSRLGCQICLTKAMDNMTVRVPDAVSDARESIDMGMNSSKIE [Y140F] | 0.01 kcal/mol | 3.17 kcal/mol | 51.5 °C | 0.11 °C | 1.8 kcal/mol/K | 83.7 kcal/mol |
| MAARLLRVASAALGDTAGRWRLLARPRAGAGGLRGSRGPGLGGGAVATRTLSVSGRAQSSSEDKITVHFINRDGETLTTKGKIGDSLLDVVVQNNLDIDGFGACEGTLACSTCHLIFEQHIFEKLEAITDEENDMLDLALGLTDRSRLGCQICLTKAMDNMTVRVPDAVSDARESIDMGMNSSKIE [Y140L] | 0.36 kcal/mol | 2.83 kcal/mol | 50.7 °C | -0.69 °C | 1.92 kcal/mol/K | 78.9 kcal/mol |
| MAARLLRVASAALGDTAGRWRLLARPRAGAGGLRGSRGPGLGGGAVATRTLSVSGRAQSSSEDKITVHFINRDGETLTTKGKIGDSLLDVVVQNNLDIDGFGACEGTLACSTCHLIFEQHIFEKLEAITDEENDMLDLASGLTDRSRLGCQICLTKAMDNMTVRVPDAVSDARESIDMGMNSSKIE [Y140S] | – | – | 50.6 °C | -0.79 °C | 1.96 kcal/mol/K | 79.9 kcal/mol |
| MAARLLRVASAALGDTAGRWRLLARPRAGAGGLRGSRGPGLGGGAVATRTLSVSGRAQSSSEDKITVHFINRDGETLTTKGKIGDSLLDVVVQNNLDIDGFGACEGTLACSTCHLIFEQHIFEKLEAITDEENEMLDLAYGLTDRSRLGCQICLTKAMDNMTVRVPDAVSDARESIDMGMNSSKIE [D134E] | -0.45 kcal/mol | 3.64 kcal/mol | 53.4 °C | 2.01 °C | 2.45 kcal/mol/K | 86.8 kcal/mol |
| MAARLLRVASAALGDTAGRWRLLARPRAGAGGLRGSRGPGLGGGAVATRTLSVSGRAQSSSEDKITVHFINRDGETLTTKGKIGDSLLDVVVQNNLDIDGFGACEGTLACSTCRLIFEQHIFEKLEAITDEENDMLDLAYGLTDRSRLGCQICLTKAMDNMTVRVPDAVSDARESIDMGMNSSKIE [H114R] | 1.16 kcal/mol | 2.02 kcal/mol | 49.3 °C | -2.11 °C | 1.03 kcal/mol/K | 59.4 kcal/mol |
| MAARLLRVASAALGDTAGRWRLLARPRAGAGGLRGSRGPGLGGGAVATRTLSVSGRAQSSSEDKITVHFINRDGETLTTKGKIGDSLLDVVVQNNLDIDGFGACEGTLACSTCQLIFEQHIFEKLEAITDEENDMLDLAYGLTDRSRLGCQICLTKAMDNMTVRVPDAVSDARESIDMGMNSSKIE [H114Q] | – | – | 46.5 °C | -4.94 °C | 1.7 kcal/mol/K | 59.6 kcal/mol |
| MAARLLRVASAALGDTAGRWRLLARPRAGAGGLRGSRGPGLGGGAVATRTLSVSGRAQSSSEDKITVHFINRDGETLTTKGKIGDSLLDVVVQNNLDIDGFGACEGTLACSTCTLIFEQHIFEKLEAITDEENDMLDLAYGLTDRSRLGCQICLTKAMDNMTVRVPDAVSDARESIDMGMNSSKIE [H114T] | 1.19 kcal/mol | 1.99 kcal/mol | – | – | – | – |
| MAARLLRVASAALGDTAGRWRLLARPRAGAGGLRGSRGPGLGGGAVATRTLSVSGRAQSSSEDKITVHFINRDGETLTTKGKIGDSLLDVVVQNNLDIDGFGACEGTLACSTCHLIFEQHIFEKLEAITDEENDMLDLAYGLTDRSRLGCQISLTKAMDNMTVRVPDAVSDARESIDMGMNSSKIE [C153S] | – | – | 55.8 °C | 4.36 °C | 1.62 kcal/mol/K | 89.3 kcal/mol |
| MAARLLRVASAALGDTAGRWRLLARPRAGAGGLRGSRGPGLGGGAVATRTLSVSGRAQSSSEDKITVHFINRDGETLTTKGKIGDSLLDVVVQNNLDIDGFGACEGTLACSSCHLIFEQHIFEKLEAITDEENDMLDLAYGLTDRSRLGCQICLTKAMDNMTVRVPDAVSDARESIDMGMNSSKIE [T112S] | -0.05 kcal/mol | 3.23 kcal/mol | 51.6 °C | 0.21 °C | 1.91 kcal/mol/K | 84.7 kcal/mol |
| MAARLLRVASAALGDTAGRWRLLARPRAGAGGLRGSRGPGLGGGAVATRTLSVSGRAQSSSEDKITVHFINRDGETLTTKGKIGDSLLDVVVQNNLDIDGFGACEGTLACSACHLIFEQHIFEKLEAITDEENDMLDLAYGLTDRSRLGCQICLTKAMDNMTVRVPDAVSDARESIDMGMNSSKIE [T112A] | 1.31 kcal/mol | 1.87 kcal/mol | 47.1 °C | -4.29 °C | 1.63 kcal/mol/K | 68.2 kcal/mol |
